In publication PMC8298264, “Function of cofactor Akirin2 in the regulation of gene expression in model human neutrophil-like HL60 cells” (Bioscience Reports, 2021):

B1: sp¦P27348¦1433T_HUMAN (protein, UniProt P27348 1-245, looked up)
14-3-3 protein theta: MEKTELIQKAKLAEQAERYDDMATCMKAVTEQGAELSNEERNLLSVAYKNVVGGRRSAWRVISSIEQKTDTSDKKLQLIKDYREKVESELRSICTTVLELLDKYLIANATNPESKVFYLKMKGDYFRYLAEVACGDDRKQTIDNSQGAYQEAFDISKKEMQPTHPIRLGLALNFSVFYYEILNNPELACTLAKTAFDEAIAELDTLNEDSYKDSTLIMQLLRDNLTLWTSDSAGEECDAAEGAEN
B2: sp¦O14737¦PDCD5_HUMAN (protein, UniProt O14737 2-125, looked up)
Programmed cell death protein …: ADEELEALRRQRLAELQAKHGDPGDAAQQEAKHREAEMRNSILAQVLDQSARARLSNLALVKPEKTKAVENYLIQMARYGQLSEKVSEQGLIEILKKVSQQTEKTTTVKFNRRKVMDSDEDDDY
B3: sp¦P11279¦LAMP1_HUMAN (protein, UniProt P11279 29-417, looked up)
Lysosome-associated membrane …: AMFMVKNGNGTACIMANFSAAFSVNYDTKSGPKNMTFDLPSDATVVLNRSSCGKENTSDPSLVIAFGRGHTLTLNFTRNATRYSVQLMSFVYNLSDTHLFPNASSKEIKTVESITDIRADIDKKYRCVSGTQVHMNNVTVTLHDATIQAYLSNSSFSRGETRCEQDRPSPTTAPPAPPSPSPSPVPKSPSVDKYNVSGTNGTCLLASMGLQLNLTYERKDNTTVTRLLNINPNKTSASGSCGAHLVTLELHSEGTTVLLFQFGMNASSSRFFLQGIQLNTILPDARDPAFKAANGSLRALQATVGNSYKCNAEEHVRVTKAFSVNIFKVWVQAFKVEGGQFGSVEECLLDENSMLIPIAVGGALAGLVLIVLIAYLVGRKRSHAGYQTI
B4: sp¦O00154¦BACH_HUMAN (protein, UniProt O00154 1-380, looked up)
Cytosolic acyl coenzyme A …: MKLLARALRLCEFGRQASSRRLVAGQGCVGPRRGCCAPVQVVGPRADLPPCGACITGRIMRPDDANVAGNVHGGTILKMIEEAGAIISTRHCNSQNGERCVAALARVERTDFLSPMCIGEVAHVSAEITYTSKHSVEVQVNVMSENILTGAKKLTNKATLWYVPLSLKNVDKVLEVPPVVYSRQEQEEEGRKRYEAQKLERMETKWRNGDIVQPVLNPEPNTVSYSQSSLIHLVGPSDCTLHGFVHGGVTMKLMDEVAGIVAARHCKTNIVTASVDAINFHDKIRKGCVITISGRMTFTSNKSMEIEVLVDADPVVDSSQKRYRAASAFFTYVSLSQEGRSLPVPQLVPETEDEKKRFEEGKGRYLQMKAKRQGHAEPQP
B5: sp¦Q9Y244¦POMP_HUMAN (protein, UniProt Q9Y244 1-141, looked up)
Proteasome maturation protein: MNARGLGSELKDSIPVTELSASGPFESHDLLRKGFSCVKNELLPSHPLELSEKNFQLNQDKMNFSTLRNIQGLFAPLKLQMEFKAVQQVQRLPFLSSSNLSLDVLRGNDETIGFEDILNDPSQSEVMGEPHLMVEYKLGLL
B6: sp¦Q16543¦CDC37_HUMAN (protein, UniProt Q16543 1-378, looked up)
Hsp90 co-chaperone Cdc37: MVDYSVWDHIEVSDDEDETHPNIDTASLFRWRHQARVERMEQFQKEKEELDRGCRECKRKVAECQRKLKELEVAEGGKAELERLQAEAQQLRKEERSWEQKLEEMRKKEKSMPWNVDTLSKDGFSKSMVNTKPEKTEEDSEEVREQKHKTFVEKYEKQIKHFGMLRRWDDSQKYLSDNVHLVCEETANYLVIWCIDLEVEEKCALMEQVAHQTIVMQFILELAKSLKVDPRACFRQFFTKIKTADRQYMEGFNDELEAFKERVRGRAKLRIEKAMKEYEEEERKKRLGPGGLDPVEVYESLPEELQKCFDVKDVQMLQDAISKMDPTDAKYHMQRCIDSGLWVPNSKASEAKEGEEAGPGDPLLEAVPKTGDEKDVSV
B7: sp¦P60981¦DEST_HUMAN (protein, UniProt P60981 2-165, looked up)
Destrin: ASGVQVADEVCRIFYDMKVRKCSTPEEIKKRKKAVIFCLSADKKCIIVEEGKEILVGDVGVTITDPFKHFVGMLPEKDCRYALYDASFETKESRKEELMFFLWAPELAPLKSKMIYASSKDAIKKKFQGIKHECQANGPEDLNRACIAEKLGGSLIVAFEGCPV
B8: Inter-alpha-trypsin inhibitor heavy chain H2 (protein, UniProt P19823 55-702, looked up)
Inter-alpha-trypsin inhibitor …: SLPGESEEMMEEVDQVTLYSYKVQSTITSRMATTMIQSKVVNNSPQPQNVVFDVQIPKGAFISNFSMTVDGKTFRSSIKEKTVGRALYAQARAKGKTAGLVRSSALDMENFRTEVNVLPGAKVQFELHYQEVKWRKLGSYEHRIYLQPGRLAKHLEVDVWVIEPQGLRFLHVPDTFEGHFDGVPVISKGQQKAHVSFKPTVAQQRICPNCRETAVDGELVVLYDVKREEKAGELEVFNGYFVHFFAPDNLDPIPKNILFVIDVSGSMWGVKMKQTVEAMKTILDDLRAEDHFSVIDFNQNIRTWRNDLISATKTQVADAKRYIEKIQPSGGTNINEALLRAIFILNEANNLGLLDPNSVSLIILVSDGDPTVGELKLSKIQKNVKENIQDNISLFSLGMGFDVDYDFLKRLSNENHGIAQRIYGNQDTSSQLKKFYNQVSTPLLRNVQFNYPHTSVTDVTQNNFHNYFGGSEIVVAGKFDPAKLDQIESVITATSANTQLVLETLAQMDDLQDFLSKDKHADPDFTRKLWAYLTINQLLAERSLAPTAAAKRRITRSILQMSLDHHIVTPLTSLVIENEAGDERMLADAPPQDPSCCSGALYYGSKVVPDSTPSWANPSPTPVISMLAQGSQVLESTPPPHVMRVEND
B9: Pre-rRNA-processing protein TSR1 homolog (protein, UniProt Q2NL82 1-804, looked up)
Pre-rRNA-processing protein …: MAAHRPGPLKQQNKAHKGGRHRGRGSAQRDGKGRLALKTLSKKVRKELSRVDQRHRASQLRKQKKEAVLAEKRQLGGKDGPPHQVLVVPLHSRISLPEAMQLLQDRDTGTVHLNELGNTQNFMLLCPRLKHRWFFTSARPGDLHVVLDMAKVADTILFLLDPLEGWDSTGDYCLSCLFAQGLPTYTLAVQGISGLPLKKQIDTRKKLSKAVEKRFPHDKLLLLDTQQEAGMLLRQLANQKQQHLAFRDRRAYLFAHAVDFVPSEENNLVGTLKISGYVRGQTLNVNRLLHIVGYGDFQMKQIDAPGDPFPLNPRGIKPQKDPDMAMEICATDAVDDMEEGLKVLMKADPGRQESLQAEVIPDPMEGEQTWPTEEELSEAKDFLKESSKVVKKVPKGTSSYQAEWILDGGSQSGGEGDEYEYDDMEHEDFMEEESQDESSEEEEEYETMTIGESVHDDLYDKKVDEEAEAKMLEKYKQERLEEMFPDEVDTPRDVAARIRFQKYRGLKSFRTSPWDPKENLPQDYARIFQFQNFTNTRKSIFKEVEEKEVEGAEVGWYVTLHVSEVPVSVVECFRQGTPLIAFSLLPHEQKMSVLNMVVRRDPGNTEPVKAKEELIFHCGFRRFRASPLFSQHTAADKHKLQRFLTADMALVATVYAPITFPPASVLLFKQKSNGMHSLIATGHLMSVDPDRMVIKRVVLSGHPFKIFTKMAVVRYMFFNREDVLWFKPVELRTKWGRRGHIKEPLGTHGHMKCSFDGKLKSQDTVLMNLYKRVFPKWTYDPYVPEPVPWLKSEISSTVPQGGME
B10: Myristoylated alanine-rich C-kinase substrate (protein, UniProt P29966 2-332, looked up)
Myristoylated alanine-rich …: GAQFSKTAAKGEAAAERPGEAAVASSPSKANGQENGHVKVNGDASPAAAESGAKEELQANGSAPAADKEEPAAAGSGAASPSAAEKGEPAAAAAPEAGASPVEKEAPAEGEAAEPGSPTAAEGEAASAASSTSSPKAEDGATPSPSNETPKKKKKRFSFKKSFKLSGFSFKKNKKEAGEGGEAEAPAAEGGKDEAAGGAAAAAAEAGAASGEQAAAPGEEAAAGEEGAAGGDPQEAKPQEAAVAPEKPPASDETKAAEEPSKVEEKKAEEAGASAAACEAPSAAGPGAPPEQEAAPAEEPAAAAASSACAAPSQEAQPECSPEAPPAEAAE

What follows are molecules tested on human HL60 cells (assay: SWATH-MS proteomics, differential protein representation, akirin2 KO vs WT HL60 cells). Settings: Over-represented in KO; KO vs WT HL60 cells.
Format: cell-based
Method: Total proteins were extracted from WT and akirin2 KO HL60 cells using the AllPrep DNA/RNA/Protein Mini Kit (Qiagen) and protein concentration was determined using the BCA Protein Assay with BSA (Sigma–Aldrich) as standard. Protein extracts (150 µg per sample, n=3 biological replicates) from each WT and KO cells were trypsin digested using the FASP Protein Digestion Kit (Expedeon Ltd., Abcam, Cambridge, U.K.) and sequencing grade trypsin (Promega, Madison, WI, U.S.A.) following manufacturer’s recommendations. The resulting peptides were finally desalted on to OMIX Pipette tips C18 (Agilent Technologies, Santa Clara, CA, U.S.A.), dried down and stored at −20 °C until mass spectrometry analysis. […] Three micrograms of each protein digest from the three biological replicates of WT and akirin2 KO HL60 cells were used for the generation of the reference spectral ion library as part of the SWATH-MS analysis.
Peptides were eluted in a 120-min gradient from 5 to 30% solvent B in solvent A followed by 15-min gradient from 30 to 60% solvent B in solvent A (solvent A: 0.1% formic acid in water, solvent B: 0.1% formic acid in acetonitrile) and directly injected into the mass spectrometer for analysis. For IDA experiments, the mass spectrometer was set to scanning full spectra (350–1400 m/z) using 250 ms accumulation time per spectrum, followed by up to 50 MS/MS scans (100–1500 m/z). Candidate ions with a charge state between +2 and +5 counts per second above a minimum threshold of 100 were isolated for fragmentation. One MS/MS spectrum was collected for 100 ms, before adding those precursor ions to the exclusion list for 15 s (mass spectrometer operated by Analyst TF 1.6, AB Sciex). Dynamic background subtraction was turned off. MS/MS analyses were recorded in high-sensitivity mode with rolling collision energy on and a collision energy spread of 5. For SWATH quantitative analysis, six independent samples (three replicates from WT and akirin2 KO HL60 cells, 5 µg each) were subjected to the cyclic DIA of mass spectra using the SWATH variable windows calculator (V 1.0, AB Sciex) and the SWATH acquisition method editor (AB Sciex), similar to established methods. […] For these experiments, a 50-ms survey scan (350–1400 m/z) was acquired at the beginning of each cycle, and SWATH–MS/MS spectra were collected from 100–1500 m/z for 70 ms at high-sensitivity mode, resulting in a cycle time of 3.6 s. Collision energy for each window was determined according to the calculation for a charge +2 ion-centered upon the window with a collision energy spread of 15. To create a spectral library of all the detectable peptides in the samples, the IDA MS raw files were combined and subjected to database search in unison using ProteinPilot software v. 5.0.1 (AB Sciex) with the Paragon algorithm. […] The detected protein threshold was set at 0.05. An independent false discovery rate (FDR) analysis, using the target–decoy approach provided by Protein Pilot (AB Sciex; https://sciex.com/products/software/proteinpilot-software), was used to assess the quality of identifications. Positive identifications were considered when identified proteins reached 1% of global FDR. […] Global normalization was performed according to the Total Area Sums (TAS) of all detected proteins in the samples. […] Heatmaps were prepared using the Heatmapper (http://www.heatmapper.ca/expression/) with average linkage and Euclidean distance measurement method.

| Molecule | Fold Change | Log (Fold Change) |
| --- | --- | --- |
| B1 | 1.296 | 0.1126 |
| B2 | 1.307 | 0.1162 |
| B3 | 1.301 | 0.1143 |
| B4 | 1.305 | 0.1157 |
| B5 | 1.341 | 0.1275 |
| B6 | 1.314 | 0.1187 |
| B7 | 1.321 | 0.1208 |

Same assay, conditions: SWATH-MS, akirin2 KO vs WT HL60 cells; over-represented in KO

| Molecule | Fold Change | Log (Fold Change) |
| --- | --- | --- |
| B8 | 3.859 | 0.5865 |
| B9 | 3.379 | 0.5288 |
| B10 | 3.833 | 0.5836 |
